Reference: patent US20070071764A1
Read-outs that look alike come from different tables or passages of the source. Where no end group is shown, it is not given here.

Assays:
Experiment in all cases: cell-based or functional assay
[1] = molecular target: human Kv1.3 channel (human) (UniProt P22001)
[2] = molecular target: human Kv1.1 channel (human) (UniProt Q09470)
[3] = molecular target: human Kv1.3 channel (human) (UniProt P22001); remark: listed apart in the source

Chain of human Kv1.3 channel (human) (P22001 whole entry): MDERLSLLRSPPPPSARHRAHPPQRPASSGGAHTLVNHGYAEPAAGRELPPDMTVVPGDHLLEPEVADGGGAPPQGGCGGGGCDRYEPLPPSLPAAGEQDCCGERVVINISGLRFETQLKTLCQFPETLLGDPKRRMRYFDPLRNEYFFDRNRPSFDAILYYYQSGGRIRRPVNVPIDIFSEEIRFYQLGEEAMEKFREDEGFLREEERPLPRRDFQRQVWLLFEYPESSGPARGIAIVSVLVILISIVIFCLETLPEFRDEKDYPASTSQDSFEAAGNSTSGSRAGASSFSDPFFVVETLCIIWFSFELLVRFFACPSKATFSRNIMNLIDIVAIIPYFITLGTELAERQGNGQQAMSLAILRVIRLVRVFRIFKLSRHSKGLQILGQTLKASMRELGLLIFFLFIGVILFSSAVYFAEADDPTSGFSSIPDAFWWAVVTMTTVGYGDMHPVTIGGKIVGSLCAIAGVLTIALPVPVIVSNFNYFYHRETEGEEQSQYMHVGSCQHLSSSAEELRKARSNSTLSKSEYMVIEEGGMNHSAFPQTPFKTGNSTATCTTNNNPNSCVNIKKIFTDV
Chain of human Kv1.1 channel (human) (Q09470 whole entry): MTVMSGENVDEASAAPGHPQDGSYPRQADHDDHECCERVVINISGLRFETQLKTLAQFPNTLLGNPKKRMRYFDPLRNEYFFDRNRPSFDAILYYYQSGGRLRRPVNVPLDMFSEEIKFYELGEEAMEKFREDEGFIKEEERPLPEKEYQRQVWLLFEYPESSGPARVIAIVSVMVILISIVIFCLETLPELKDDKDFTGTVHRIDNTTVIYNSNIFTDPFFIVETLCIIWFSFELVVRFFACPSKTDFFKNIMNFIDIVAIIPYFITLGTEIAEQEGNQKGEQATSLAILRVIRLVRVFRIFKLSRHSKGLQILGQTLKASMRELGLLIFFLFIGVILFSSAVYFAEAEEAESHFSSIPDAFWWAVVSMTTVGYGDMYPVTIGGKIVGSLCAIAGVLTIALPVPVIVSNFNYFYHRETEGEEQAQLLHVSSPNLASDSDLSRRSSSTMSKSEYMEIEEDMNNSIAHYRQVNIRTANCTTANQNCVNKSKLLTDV

Molecule: Fc-L25-ShK[2-35] peptibody (Fc fusion)
- IC50, whole cell patch clamp electrophysiology on HEK293/Kv1.3 cells [1]: 150 pM

Molecule: PEG-OSK1 (peptide)
- peak IC50 (whole-cell patch clamp, HEK293 stably expressing human Kv1.3) [1]: 1280 pM

Molecule: Synthetic OSK1 toxin peptide
- hKv1.1: IC50 (electrophysiology, HEK293) [2]: 160 pM
- hKv1.3: IC50 (whole-cell patch clamp, HEK293) [1]: 39 pM
- selectivity ratio hKv1.1/hKv1.3 (IC50 on hKv1.1 over IC50 on hKv1.3) [1]: 4

Molecule: Fc-L10-OSK1 (CHO-derived peptibody) (Fc fusion)
- hKv1.1: IC50 (electrophysiology, HEK293) [2]: 41600 pM

B1: 20K PEG-ShK[1-35] (peptide)
peptide: RSCIDTIPKSRCTAFQCKHSMKYRLSFCRKTCGTC
modifications: not fully specified (N-terminus); ends and bridges not checked
- peak IC50 (whole-cell patch clamp, HEK293 stably expressing human Kv1.3) [3]: 169 pM
